{
  "source": "patent US20080193973A1",
  "about": "“Bacillus Subtilis Strain and its Use in Preparing Pharmaceuticals for Treating Thrombosis” (CHENGDU DI'AO JIUHONG PHARMACEUTICAL, priority 2005, published 2008)",
  "molecules": {"B1": {"name": "nattokinase of the invention: fibrinolysin produced by Bacillus subtilis Diao 1502; crude drug, luteous water-soluble powder, batch No. 20040617 (protein, UniProt P35835 107-381, looked up)", "Subtilisin NAT": "AQSVPYGISQIKAPALHSQGYTGSNVKVAVIDSGIDSSHPDLNVRGGASFVPSETNPYQDGSSHGTHVAGTIAALNNSIGVLGVAPSASLYAVKVLDSTGSGQYSWIINGIEWAISNNMDVINMSLGGPTGSTALKTVVDKAVSSGIVVAAAAGNEGSSGSTSTVGYPAKYPSTIAVGAVNSSNQRASFSSVGSELDVMAPGVSIQSTLPGGTYGAYNGTSMATPHVAGAAALILSKHPTWTNAQVRDRLESTATYLGNSFYYGKGLINVQAAAQ"}, "B2": {"name": "Nattokinase (NK): serine protease extracted from the traditional Japanese food Natto, 275 amino acids (background literature) (protein, UniProt P35835 107-381, looked up)", "Subtilisin NAT": "B1 Subtilisin NAT"}},
  "key": {"[1]": {"system": "carotid artery thrombosis in rats", "experiment": "carotid artery thrombosis test in rats (direct current stimulation, thrombus formation time)", "format": "in vivo, SD rats", "procedure": "Experimental Apparatus: Experimental Intracorporeal Thrombosis Surveyor BT87-3, developed by the cardiovascular research department of Baotou Medical University of China.\nThe carotid artery of test rats were separated 1 hour after the last intragastric administration or 15 minutes after intravenous injection according to the method prescribed in existing literature. Being stimulated continually with direct current (2 mA) for 7 minutes, the injuries of endarterium of carotid artery formed thrombosis gradually in test rats. The experimental apparatus would give an automatic alarm and record the time of thrombus formation when the blood vessels were blocked."}, "[2]": {"experiment": "weight and overt toxicity of test rats during 7 days of administration", "method": "Experimental Animal: 84 male SD rats weighing 250 to 320 g, purchased from the Animal Center of Henan Medical University of China.\nEighty-four male SD rats were randomly assigned to seven experimental groups (12 rats each group) according to their body weight. The freeze-dried powder of nattokinase and positive drug aspirin were given to test groups and the control group was administered with 5% NaHCO3, by intragastric administration according to the dosage of 0.5 ml/100 g each day for 7 continuous days. The positive drug staphylokinase was given at the 7th day by intravenous injection."}, "mice": {"system": "mice", "experiment": "acute toxicity test by intragastric administration in mice", "format": "in vivo"}, "[3]": {"experiment": "preliminary test of activity of nattokinase prepared by 5% NaHCO3 at room temperature", "format": "physicochemical", "settings": "prepared by 5% NaHCO3, room temperature for 4 days", "source_text": "Basis of Preparation: It has been reported that the nattokinase-like drugs are stable at pH values from 6.0 to 12.0 and unstable when to the PH value is below 5.0. Generally, the pH values of digestive tract are ranged from 0.9 to 1.5 in stomach, 6.0 to 6.8 in small intestine and 6.5 to 7.5 in colon. Therefore, the direct intragastric administration of drug containing nattokinase prepared with common solution adjuvant is unstable and easy to breakdown."}, "[4]": {"experiment": "enzyme (nattokinase) activity of fermentation broth or dried crude product", "format": "biochemical", "source_text": "Although many kinds of fermentation techniques have been reported in existing literatures related to nattokinase from Bacillus subtilis, but the majority of the publicized strains have lower enzyme producing ability. On the other hand, other literatures describes some fermentation products from Bacillus subtilis that have higher enzyme producing ability, but it is difficult to evaluate the abilities of these publicized enzymes for the uncertainties of measuring conditions. The strain of Bacillus subtilis of the invention was fermented under the condition of temperature 30 to 40 degree C. and with the speed of 180 to 220 rpm for shaking bed, and the peak of enzyme production was obtained next day with enzyme activity of 1600 IU/ml and could be increased to 1697 IU/ml under optimized conditions. The enzyme activity of dried crude product could reach to 5000-10000 IU/g in solid fermentation of 10 kg supplies. […] Therefore, it has a very high industrial application value. So we think that the strain of Bacillus subtilis (No. Diao 1502) is a newly developed, different one in comparison with any Bacillus subtilis producing nattokinase reported in existing literatures."}, "[5]": {"settings": "temperature below 56 degree C. for 30 10 minutes; cited from earlier work"}, "[6]": {"settings": "in vivo, po; cited from earlier work"}},
  "note": "Marks after values point to notes of the source that are not given here.",
  "data": [
    {"molecule": "CC(=O)Oc1ccccc1C(=O)O", "note": "[Aspirin]", "values": [
      {"measurement": "Thrombus formation time, mean value", "setting": "[1]; aspirin 40 mg/kg/day intragastric for 7 days, 1 hour after last administration", "value": "1379** second"},
      {"measurement": "Weight of test rats after 7 days of administration", "setting": "[2]; aspirin 40 mg/kg/day intragastric", "value": "316 ± 20"},
      {"measurement": "Weight of test rats before administration", "setting": "[2]; aspirin group (40 mg/kg/day intragastric)", "value": "296 ± 15"}
    ]},
    {"molecule": "B1", "values": [
      {"measurement": "LD50", "setting": "mice", "value": "higher than 6.0 g/kg"},
      {"measurement": "Carotid artery thrombosis time compared with positive Aspirin (in words)", "setting": "[1]; groups of different dosages", "value": "no significant difference"},
      {"measurement": "Thrombus formation time, mean value", "setting": "[1]; high dosage 100 mg/kg in 5% NaHCO3, intragastric for 7 days", "value": "1309** second"},
      {"measurement": "Effect on carotid artery thrombosis time compared with negative control (in words)", "setting": "[1]; listed as NK prepared by 5% NaHCO3", "value": "apparent antithrombotic effects"},
      {"measurement": "Effect on carotid artery thrombosis time compared with negative control (in words)", "setting": "[1]; listed as freeze dried powder of nattokinase", "value": "prolonged significantly"},
      {"measurement": "Thrombus formation time, mean value", "setting": "[1]; low dosage 4 mg/kg in 5% NaHCO3, intragastric for 7 days", "value": "1237* second"},
      {"measurement": "Thrombus formation time, mean value", "setting": "[1]; middle dosage 20 mg/kg in 5% NaHCO3, intragastric for 7 days", "value": "1287* second"},
      {"measurement": "Activity after storage (in words)", "setting": "[3]", "value": "no decrease in activity"},
      {"measurement": "Enzyme activity of fermentation broth", "setting": "[4]; after optimization of fermentation condition", "value": 1697, "unit": "IU/ml"},
      {"measurement": "Enzyme activity of fermentation broth", "setting": "[4]; liquid fermentation, before optimization", "value": 1600, "unit": "IU/ml"},
      {"measurement": "Enzyme activity of dried crude product", "setting": "[4]; solid fermentation of 10 kg class, after drying", "value": "5000-10000 IU/g"},
      {"measurement": "Activity after incubation (in words)", "setting": "[5]", "value": "basically unchanged"},
      {"measurement": "Toxicity in rats (in words)", "setting": "[2]; 7-day's intragastric administration, prepared with 5% NaHCO3", "value": "no apparent toxicity"}
    ]},
    {"molecule": "B2", "values": [
      {"measurement": "Time of peak value of fibrinolytic activity after taking the medicine", "setting": "[6]", "value": 4, "unit": "h"},
      {"measurement": "Time till which certain activity was maintained", "setting": "[6]", "value": 8, "unit": "h"}
    ]}
  ]
}
